Results as given in US20220380801A1, “TRIPARTITE SYSTEMS FOR PROTEIN DIMERIZATION AND METHODS OF USE” (priority 2019, published 2022).
Like-named read-outs stand apart in the source and are kept apart here.

B1: “WT” S139A: HCV NS3/4A protease with active site mutation S139A, SEQ ID NO: 2 (protein)
chain: MKKKGSVVIVGRINLSGDTAYAQQTRGEEGCQETSQTGRDKNQVEGEVQIVSTATQTFLATSINGVLWTVYHGAGTRTIASPKGPVTQMYTNVDKDLVGWQAPQGSRSLTPCTCGSSDLYLVTRHADVIPVRRRGDSRGSLLSPRPISYLKGSAGGPLLCPAGHAVGIFRAAVSTRGVAKAVDFIPVESLETTMRSP
modifications: HCV NS3/4A PR (S139A)
B2: PRSIM_01: scFv PRSIM binding molecule, SEQ ID NO: 10 (protein)
scFv: QVQLVQSGAEVKKPGSSVKVSCKASGGTFSSYAISWVRQAPGQGLEWMGGIIPIFGTANYAQKFQGRVTITADESTSTAYMELSSLRSEDTAVYYCARGQGYITVFDYWGQGTLVTVSSGGGGSGGGGSGGGGSAQSVLTQPPSASGTPGQRVTISCSGSSSNIGSNTVNWYQQLPGTAPKLLIYSNNQRPSGVPDRFSGSKSGTSASLAISGLQSEDEADYYCAAWDHHWEQVVFGGGTKLTVL
modifications: PRSIM_01

Tests used:
[1] = test system: GFP-PEST expression in monoclonal HEK293 cell lines; experiment: Flow cytometry kinetics of GFP-PEST expression after simeprevir removal; type: cell-based, human; details: 24h simeprevir induction, then removal
[2] = test system: fluorogenic HCV protease FRET substrate; experiment: HCV NS3/4A PR protease activity assay (fluorogenic peptide cleavage); type: biochemical; details: compared to WT
Description: To assess enzyme activity, cleavage of a fluorogenic HCV protease FRET substrate with an EDANS-DABCYL donor-quencher pair by purified HCV NS3/4A PR and the S139A mutant (RET 51, AnaSpec) was measured. When in close proximity (10-100 Å), as would be the case for the intact peptide, EDANS is excited at 340 nm, and the energy emitted from EDANS (at 490 nm) is quenched by DABCYL. Cleavage of the peptide by the HCV NS3/4A PR separates DABCYL from EDANS, allowing detection of fluorescence at 490 nm.
Serial dilutions of HCV NS3/4A PR and the active site mutant S139A in assay buffer (HEPES pH 7.8, 5 mM DTT, 100 mM NaCl, 10% glycerol, 0.01% CHAPS) were incubated with the fluorogenic substrate at room temperature. Fluorescence was measured after 3 hours using a PerkinElmer Envision plate reader (excitation 340 nm, emission 490 nm).

[3] = test system: luciferase reporter gene in HEK293 cells; experiment: Transcriptional regulation assay (split transcription factor), luciferase reporter; type: cell-based, human; details: for EC50: simeprevir dose-response
Source text: The iDimerize regulated transcription system (Takara) was used to test the ability of PRSIM-based CIDs to regulate gene expression. […] The DBD and AD are separately fused to the two protein components of a CID such that, only in the presence of the small molecule inducer, the AD is brought into close proximity to the DBD, recruiting the transcription machinery to a promoter harbouring the DBD recognition sites. The iDimerize regulated transcription system (Takara) provides two vectors, pHet-Act1-2 and pZFHD1-Luciferase. The pHet-Act1-2 vector encodes two fusion proteins that represent a positive control: one is a fusion between FRB (T82L mutant; DmrC) and an activation domain (AD) from human p65 (SEQ ID NO: 42); the other is a fusion protein comprised of a DNA binding domain (ZFHD1) (SEQ ID NO: 43) fused to three tandem copies of FKBP12 (DmrA). These sequences are preceded by a CMV promoter and separated by an internal ribosome entry site (IRES). The ZFHD1 vector encodes luciferase preceded by an inducible promoter consisting of 12 copies of the recognition sequence of the ZFHD1 DBD upstream of a minimal IL-2 promoter. Binding of the DBD to its recognition sequence and recruitment of the transcriptional machinery by the AD initiates transcription of the luciferase reporter gene. The DNA sequence encoding HCV NS3/4A PR (S139A) was purchased as a DNA string from GeneArt and cloned into the pHet-Act1-2 vector as either an N-terminal fusion partner to the activation domain (SEQ ID NO: 44) (replacing FRB) or as a C-terminal fusion partner to the DNA binding domain (SEQ ID NO: 45) (replacing FKBP12) with flexible linkers (TGGGGSGGGGS (SEQ ID NO: 185) and SA, respectively) between the fusion partners. Subsequently, sequences encoding one copy of a panel of 12 PRSIM molecules (Table 2) were purchased as DNA strings from GeneArt and were cloned using Gibson assembly into the HCV NS3/4A PR (S139A)-containing pHetAct1-2 constructs described above, as a fusion partner to either the DBD (SEQ ID NOS: 46-56) or AD (SEQ ID NOS: 57-67), respectively. An equivalent construct was generated to replace the three copies of FKBP12 in pHet-Act1-2 with a single copy of FKBP12. The sequence of the constructs encoding both activation domain and DNA-binding domain fusion proteins was confirmed by Sanger sequencing of the entire coding region.
Sequences encoding the three HCV NS3/4A PR (S139A) mutants (Table 6) were purchased as DNA strings from GeneArt and were cloned using Gibson assembly into the pHetAct1-2 HCV NS3/4A PR (S139A)-PRSIM_23 (3 tandem copy) construct described above as a fusion partner to the AD (SEQ ID NOs: 211-216).
All transcriptional regulation assays were performed in adherent HEK293 cells cultured in 384-well plates. Cells enzymatically dissociated from a tissue culture flask were counted and plated at 7.5×10^3 cells/well in a 384-well plate. The plates were incubated overnight at 37° C. with 5% CO2 to allow the cells to adhere. On day 2, the cells were co-transfected with a pHet-Act1-2 plasmid (containing the FRB:FKBP12 control fusion proteins (Clontech) or the HCV NS3/4A PR (S139A):PRSIM fusion proteins) and a pZFHD1 plasmid (encoding either luciferase (Clontech) or NanoLuc-PEST (as described above)) using Lipofectamine LTX (ThermoFisher). On day 3, wells were treated with different concentrations of either A/C heterodimeriser (for the FRB:FKBP12 control), simeprevir or with vehicle control, and 24 hours later luminescence was quantified with an Envision plate reader immediately following addition of SteadyGlo luciferase substrate (Promega) or Nano-Glo Vivazine luciferase substrate (Promega). Alternatively, reverse transfections were carried out on Day 1, addition of dimeriser on Day 2 and luminescence quantified 24 hours later on Day 3.
Luminescence readings were converted into fold-change by dividing the signal in the presence of simeprevir by that in the absence of simeprevir.

[4] = test system: split Nanoluciferase (LgBiT/SmBiT) reconstitution in HEK293 cells; experiment: Split NanoLuc reconstitution assay (NanoBiT); type: cell-based, human; details: 100 nM simeprevir over no simeprevir; LgBiT fused to the C-terminus of the PRSIM binding module
Description: The ability of the PRSIM binding molecules to promote dimerization of two proteins to which they are fused was assessed with the NanoBiT system (Promega) that measures the reconstitution of a split Nanoluciferase (NanoLuc) and the resultant luminescence upon supply of a live cell imaging Nano-Glo NanoLuc substrate (FIG. 8). In the NanoBiT system, one interaction partner is fused via a flexible linker to an 18 kDa fragment of NanoLuc termed LgBiT (for “large bit”) (SEQ ID NO: 16) and the other is fused via an equivalent linker to a 1.3 kDa peptide SmBiT (“small bit”) (SEQ ID NO: 17). LgBit and SmBiT have a low affinity (190 μM) for each other in the absence of interacting partners and will not reconstitute to form an active luciferase enzyme. Once fused to the interacting proteins of a CID and supplied with inducer, they will reconstitute, and luminescence can be measured. The NanoBiT system supplies two sets of control proteins fused to LgBiT and SmBiT: a set of constitutively interacting proteins PRKAR2A:PRKACA; and the FRB:FKBP12 pair whose dimerization can be induced with rapamycin.
To establish the optimal orientation of the HCV NS3/4A PR (S139A) and PRSIM components, constructs whereby HCV NS3/4A PR (S139A) was fused at either the N- or C-terminus to SmBiT (SEQ ID NOs: 18 and 19, respectively) and a parallel set of constructs for each PRSIM binding module fused to either the N- or C-terminus of LgBiT (SEQ ID NOS: 20-30 and 31-41, respectively). The NanoBiT kit (Promega) supplies a set of vectors enabling these constructs to be generated. DNA strings encoding HCV NS3/4A PR (S139A) and the PRSIM molecules were purchased from GeneArt and amplified via PCR with primers with extensions containing restriction sites compatible with the NanoBiT vectors and were cloned via Gibson assembly. All constructs were verified via Sanger sequencing of the entire coding sequence.
All NanoBiT screens were performed in adherent HEK293 cells cultured in 96-well plates. Cells enzymatically dissociated from a tissue culture flask were counted and plated at 2×10^4 cells/well in a white, opaque-bottomed 96-well plate (Costar 3917). The plates were incubated overnight at 37° C. with 5% CO2 to allow the cells to adhere. On day 2, plasmids were co-transfected with Lipofectamine LTX (ThermoFisher) at a final concentration of 100 ng/well (50 ng/plasmid, one encoding a SmBiT fusion, the other a LgBiT fusion). On day 3, wells were treated with 100 nM of the appropriate small molecule inducer (rapamycin (FRB:FKBP12) or simeprevir (HCV NS3/4A PR:PRSIM)) or vehicle control, and luminescence was quantified with an Envision plate reader immediately following addition of Nano-Glo Live Cell Substrate (Promega).

Molecule | GFP fluorescence after simeprevir removal [1] | enzymatic activity [2] | Max fold change ([3]; protease variant-AD and DBD-PRSIM_23 (three tandem copies)) | fold-change in luminescence [4] | Max fold change ([3]; PRSIM fused to AD, one copy) | EC50 ([3]; PRSIM fused to AD, one copy) | Max fold change ([3]; PRSIM fused to DBD, one copy) | EC50 ([3]; PRSIM fused to DBD, one copy, read-out: EC50)
B1 | retained high GFP-fluorescence over 24 h | No enzymatic activity could be detected at most concentrations tested | 6973 | – | – | – | – | –
B2 | – | – | – | 16 fold | 5.83 | Ambiguous | 86.76 | 6.99 nM
